Biological target: host cell proteins
Test: microtiter plate column chromatography, Bradford assay; fraction of injected protein bound

Substance: rProtein A Sepharose FF (from UniProt P38507 37-327)
- Bound: 0%

From patent WO2011104307A2
